We go through four molecules from patent US20230071609A1 (Genentech, published 2023).

In one experiment the target is T1, APOL1 peptide aa 364-385 (human).
T1 peptide: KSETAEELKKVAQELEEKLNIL
The experiment in a line: overlapping ~20-mer peptides (SPR, western blot). Here is the method: (§1) Following three TBST washes, anti-mouse (GE Healthcare NA931V, 1:3000) or anti-rabbit HRP (Jackson 711-036-152, 1:8000) was added as secondary antibody. After 1 h, membranes were washed and protein detected using ECL prime (Amersham RPN2232) exposed to MR film (Kodak). Anti-actin HRP-conjugated antibody (clone 13E5, Cell Signaling Technologies 5125S at 1:5000) or calnexin (Abcam Ab22595 at 1:1000) was used as a loading control. For peptide mapping, 2 μl of 1 mM peptides in DMSO were boiled in 5× sample buffer and loaded on 10% Tris-Glycine gel and run using MES buffer. Cell pellets of Sf9 lysates were lysed in native RIPA (NP-40) lysis buffer and run on 10% Tris-Glycine gels.
A 96×96 array-based SPR imaging system (Carterra USA) was used for epitope mapping of anti-ApoL1 monoclonal antibodies. Briefly, purified monoclonal hybridoma antibodies were diluted at 10 μg/ml in 10 mM sodium acetate buffer pH 4.5. Using amine coupling, antibodies were directly immobilized onto a SPR sensorprism CMD 200M chip (XanTec Bioanalytics, Germany) using a Continuous Flow Microspotter (Carterra, USA) to create an array of antibodies. After coupling, the antibodies were blocked with ethanolamine, and primed with running buffer (10 mM HEPES, pH 7.4, 150 mM NaCl, 3 mM EDTA, and 0.005% Tween 20). […]
Background: In western blotting, separated proteins are transferred to a membrane and probed.

For experiment [1], the target named is T2, endogenous human APOL1 (wild-type immortalized podocytes; also JHH-1 cells, kidney and liver tissue) (human, UniProt O14791 28-398).
T2 construct: whole, on cells; Cell or tissue and permeabilization are told under assay; also called podocyte APOL1; endogenous APOL1
T2 sequence (looked up): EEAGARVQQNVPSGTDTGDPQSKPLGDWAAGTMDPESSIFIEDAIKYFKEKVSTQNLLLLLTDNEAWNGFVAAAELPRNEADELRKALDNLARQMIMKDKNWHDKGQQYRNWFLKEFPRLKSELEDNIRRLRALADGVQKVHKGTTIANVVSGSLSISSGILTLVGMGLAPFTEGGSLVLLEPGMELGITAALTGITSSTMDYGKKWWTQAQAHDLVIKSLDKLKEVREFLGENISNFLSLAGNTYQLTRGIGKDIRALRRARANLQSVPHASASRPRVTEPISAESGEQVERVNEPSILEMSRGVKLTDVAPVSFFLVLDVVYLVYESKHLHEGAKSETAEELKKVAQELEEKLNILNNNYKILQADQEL
Put plainly: flow cytometry, live WT and iAPOL1-G0 podocytes. Here is the method:
(§2) Cells were harvested with 5 mM EDTA in PBS, washed once with growth media and twice with PBS. Approximately 0.5×10⁶/m1 of cells resuspended in PBS were incubated with anti-APOL1 antibodies for 1 h on ice. Following two PBS washes, 2 μg/ml of Alexa488 anti-mouse or anti-rabbit (Invitrogen A11029 and A21206, respectively) was used for 1 h on ice for detection. Cells were washed twice in PBS and resuspended in PBS with 1 μg/ml propidium iodide. Signals were read in a FACSCalibur3 (Becton Dickinson), with the exception of FIG. 8A and FIG. 14, which used a FACSCelesta, and data was analyzed using FlowJo v8.4.5. Mean fluorescence intensities were plotted in PRISM v7 after subtraction of secondary antibody alone background. For low pH experiments, cells were incubated with the antibodies in the presence of PBS pH 7.0 or PBS pH 5.5 for an hour on ice and detected with secondary antibodies at neutral pH.
More importantly, there were also differential APOL1 accessibilities between serum APOL1 and kidney disease-relevant podocytes (FIG. 18B). Some antibodies bound surface APOL1 in WT and iAPOL1 podocytes (FIG. 6A, 6B), but not circulating APOL1 (as judged by lack of trypanolytic blockade, FIG. 6C) and vice versa. […] Conversely, 3.3B6 and 4.17A5 were among the top trypanolytic blockers, but recognized the podocyte surface relatively weakly. […]
In general terms: A flow cytometer gives signals particle by particle.

Experiment [2] deals with T2, endogenous human APOL1 (wild-type …). The experiment in a line: summary of the Examples: podocyte flow cytometry. The method, then:
as §2

For experiment [3], the target named is T3, APOL1-G2 (deletion of N388 and Y389) (human, UniProt O14791 29-398).
T3 construct: expressed in CHO cells (flow cytometry, lysates), COS cells and podocytes; also called iAPOL1-G2; APOL-G2
T3 sequence: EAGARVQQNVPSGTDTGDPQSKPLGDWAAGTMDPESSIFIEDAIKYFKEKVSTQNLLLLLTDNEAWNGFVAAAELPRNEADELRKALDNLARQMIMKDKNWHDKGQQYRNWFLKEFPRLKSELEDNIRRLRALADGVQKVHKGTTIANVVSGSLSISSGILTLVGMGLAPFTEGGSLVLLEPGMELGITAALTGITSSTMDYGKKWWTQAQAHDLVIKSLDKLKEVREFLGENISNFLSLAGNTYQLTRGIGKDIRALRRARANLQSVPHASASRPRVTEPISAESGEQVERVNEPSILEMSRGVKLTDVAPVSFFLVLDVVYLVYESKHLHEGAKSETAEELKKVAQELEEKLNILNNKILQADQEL
Put plainly: flow cytometry, live CHO cells expressing full length native iAPOL1-G2.

Experiment [4] deals with T4, circulating APOL1 in normal human serum (human, UniProt O14791 28-398).
T4 construct: mature; Serum of healthy volunteers; lipoprotein-associated; also called serum APOL1; HDL APOL1
T4 sequence (looked up): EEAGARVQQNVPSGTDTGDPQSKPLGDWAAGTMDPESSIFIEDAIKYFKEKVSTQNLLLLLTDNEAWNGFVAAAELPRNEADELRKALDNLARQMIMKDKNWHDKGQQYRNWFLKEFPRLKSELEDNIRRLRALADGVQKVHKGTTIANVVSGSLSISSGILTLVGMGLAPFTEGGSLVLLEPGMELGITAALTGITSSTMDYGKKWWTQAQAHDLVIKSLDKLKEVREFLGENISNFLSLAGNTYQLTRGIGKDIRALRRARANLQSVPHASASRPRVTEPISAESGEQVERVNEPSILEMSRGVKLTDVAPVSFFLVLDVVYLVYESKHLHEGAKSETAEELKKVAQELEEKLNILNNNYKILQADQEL
Put plainly: summary of the Examples: trypanolysis blocking as proxy for serum APOL1. The method, then: The trypanolysis assay used herein to text specificity of antibodies for serum APOL1 is as follows. Trypanosoma brucei brucei were obtained from ATCC and cultured in HMI-9 media containing IMDM (Genentech), heat-inactivated (56° C. for 30 min) FBS (Seradigm IXL9/06807/GEN), 1% serum plus (Sigma 14008C), HMI-9 (Genentech) and 1% hypoxanthine (Genentech). Trypanosome lysis was performed by treating 1×10⁵ Trypanosomes with serial dilutions of NHS or recombinant APOL1 for 16 h in a total of 100 μl. Live cell read out was done by the Alamar Blue assay as per the manufacturer's protocol, (Thermo Fisher, DAL1100). Briefly 10 μl of Alamar Blue was added to each well, incubated at 37° C. for 4 h. Red fluorescence, indicating live trypanosomes, was measured on a SpectraMax® fluorimeter powered by SoftMAX® PRO with excitation at 530 nm and emission 590 nm. For the antibody blocking assay, 1% normal human serum was preincubated with 1-10 μg/ml of anti-APOL1 antibody or media at room temperature for 20 minutes followed by addition of trypanosomes. After 16 h, the Alamar Blue assay was performed as above and background values for media only were subtracted and % blocking calculated by normalizing to no antibody control.
Trypanosoma brucei brucei were obtained under MTA from ATCC and cultured in HMI-9 media containing IMDM (Genentech), heat-inactivated (56° C. for 30 min) FBS (Seradigm IXL9/06807/GEN), 1% serum plus (Sigma 14008C), HMI-9 (Genentech) and 1% hypoxanthine (Genentech). Trypanosome lysis was performed by treating 1×10⁵ Trypanosomes with serial dilutions of NHS or recombinant APOL1 for 16 h in a total of 100 μl. Live cell read out was done by the Alamar Blue assay as per the manufacturer's protocol (30) (Thermo Fisher, DAL1100). Briefly 10 μl of Alamar Blue was added to each well, incubated at 37° C. for 4 h. Red fluorescence, indicating live trypanosomes, was measured on a SpectraMax fluorimeter powered by SoftMAX PRO with excitation at 530 nm and emission 590 nm. For the antibody blocking assay, 1% normal human serum was preincubated with 1-10 μg/ml of anti-APOL1 antibody or media at room temperature for 20 mins followed by addition of trypanosomes.

Experiment [5] has as its target T5, APOL1 very C-terminal peptide aa 376-398 (human).
T5 peptide: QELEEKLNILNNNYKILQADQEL
Put plainly: overlapping ~20-mer peptides (SPR, western blot); antibody named in paragraph 192. Here is the method: as §1
A 96×96 array-based SPR imaging system (Carterra USA) was used for epitope mapping of anti-ApoL1 monoclonal antibodies. Briefly, purified monoclonal hybridoma antibodies were diluted at 10 μg/ml in 10 mM sodium acetate buffer pH 4.5. Using amine coupling, antibodies were directly immobilized onto a SPR sensorprism CMD 200M chip (XanTec Bioanalytics, Germany) using a Continuous Flow Microspotter (Carterra, USA) to create an array of antibodies. After coupling, the antibodies were blocked with ethanolamine, and primed with running buffer (10 mM HEPES, pH 7.4, 150 mM NaCl, 3 mM EDTA, and 0.005% Tween 20). Epitope mapping was performed by flowing 100 nM of different peptides of APOL1 across the immobilized anti-APOL1 antibodies on the biosensor chip at 25° C. in a running buffer of 10 mM HEPES, pH 7.4, 150 mM NaCl, 3 mM EDTA, and 0.005% Tween 20. After each flow through of the APOL1 peptide, the chip surface was regenerated using 10 mM glycine, pH 2.0.

B1: antibody 4.29C4 (antibody, V domains shown)
VH: QVQLQQPGAELVRPGASVKLSCKASGYSFANYWMNWVKQRPGQGLEWIGMIHPSDSESRLSQRFKDKATLTVDKSSSTAYMQLNSPTSEDSAVYYCARLDYWGQGTSVTVSS
VL: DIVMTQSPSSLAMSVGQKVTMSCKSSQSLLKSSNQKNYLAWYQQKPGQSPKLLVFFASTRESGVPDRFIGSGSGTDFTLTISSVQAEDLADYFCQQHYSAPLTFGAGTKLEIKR
notes: Mouse mAb, cloned as murine IgG2a LALAPG
B1: the binding result in the experiment with APOL1 peptide aa 364-385 was “binds”.

B2: antibody 3.3B6 (antibody, V domains shown)
VH: QVQLQQSGAELARPGASVKLSCKASGYTFTSHWMQWLKQRPGQGLEWIGAIYPGDGDTKFTQKFKDKATLTADKSSTTAYMQLSSLASEDSAVYYCARENLYGYYFDYWGQGTTLTVSS
VL: QAVVTQESALTTSPGETVTLTCRSSTGAVTSGNFANWVQEKPDHLFTGLIGGADNRAPGVPARFSGSLIGDKAALIITGAQTEDEAIYFCALWYSDHWVFGGGTKLTVLG
notes: as for B1
Consider B2, for which, in experiment [1], the binding result is reported as “binds”.

B3: antibody 4.11A10 (antibody, V domains shown)
VH: EVQLQQSGPELVKTGASVKISCKASGYSFTGYFMHWVKQSHGKSLEWIGYISCYNGVSVYNQRFKGKATFTIDTSSSTAYMQFNSLTSEDSAVYYCARDVLRYPRYAVDYWGQGTSVTVSS
VL: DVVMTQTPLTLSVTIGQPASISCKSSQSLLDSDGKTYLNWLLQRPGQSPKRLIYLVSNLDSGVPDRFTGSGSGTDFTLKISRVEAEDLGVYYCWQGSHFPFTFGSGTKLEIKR
notes: as for B1
Consider B3, for which the binding result is listed as “binds” in experiment [2], “no binding (tested: 5 µg/ml)” in experiment [3], “binds” in experiment [4] and “binds” in experiment [5].

B4: antibody 4.11H11 (antibody, V domains shown)
VH: EVQVQQSGPELVKPGASMKISCKASGYSFIVYTMNWVKQSHGKNLEWIGLINPYNGGTIYNRKFKGKATLTVDKSSSTAYLELLSLTSEDSAVYYCARGALYRYEGAMDYWGQGTSVIVSS
VL: QIVLSQFPAILSASPGEKVTMTCRASSSVIYVHWYQQKPGSSPKPWIYATSNLASGVPARFSGSGSGTSHSLTISRLEAEDTATYYCQQWSSNPLTFGAGTKLEIKR
notes: as for B1
B4: the binding result in experiment [2] is listed as “binds”; in experiment [3], “no binding (tested: 5 µg/ml)”; in experiment [4], “binds”; in experiment [5], “binds”.
